Values of other authors as cited in PMC4815344.

Biological target: soluble epoxide hydrolase (Homo sapiens) (UniProt P34913)

soluble epoxide hydrolase, sequence (P34913 whole entry): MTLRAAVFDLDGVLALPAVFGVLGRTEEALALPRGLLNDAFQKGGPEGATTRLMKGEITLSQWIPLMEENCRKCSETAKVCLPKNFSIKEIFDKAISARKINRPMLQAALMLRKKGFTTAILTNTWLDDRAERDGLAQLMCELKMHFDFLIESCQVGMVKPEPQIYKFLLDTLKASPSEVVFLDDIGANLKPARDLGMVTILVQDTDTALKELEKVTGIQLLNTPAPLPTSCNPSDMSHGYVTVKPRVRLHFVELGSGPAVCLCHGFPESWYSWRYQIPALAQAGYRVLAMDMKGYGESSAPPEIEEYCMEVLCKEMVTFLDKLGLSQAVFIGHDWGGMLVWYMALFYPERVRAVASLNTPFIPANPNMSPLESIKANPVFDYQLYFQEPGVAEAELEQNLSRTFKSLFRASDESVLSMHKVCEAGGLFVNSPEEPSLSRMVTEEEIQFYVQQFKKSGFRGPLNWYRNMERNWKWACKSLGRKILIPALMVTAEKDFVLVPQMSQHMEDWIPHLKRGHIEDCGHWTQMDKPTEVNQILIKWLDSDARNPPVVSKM

Kd: 5 pM
Substance: soluble epoxide hydrolase (from UniProt P34913)
